Assay results published in patent US20260273049A1 (ALLIGATOR BIOSCIENCE, published 2026).

Key:
[1] = molecular target: T1, human CEACAM1 expressed on CHO cells (human, UniProt P13688 35-526); assay: flow cytometry on CEACAM1-transfected CHO cells, fluorochrome-conjugated anti-human IgG [1/2) B]
T1 construct: whole, on cells; also called CHO-CEACAM1; CEACAM1 on cells
T1 sequence (looked up): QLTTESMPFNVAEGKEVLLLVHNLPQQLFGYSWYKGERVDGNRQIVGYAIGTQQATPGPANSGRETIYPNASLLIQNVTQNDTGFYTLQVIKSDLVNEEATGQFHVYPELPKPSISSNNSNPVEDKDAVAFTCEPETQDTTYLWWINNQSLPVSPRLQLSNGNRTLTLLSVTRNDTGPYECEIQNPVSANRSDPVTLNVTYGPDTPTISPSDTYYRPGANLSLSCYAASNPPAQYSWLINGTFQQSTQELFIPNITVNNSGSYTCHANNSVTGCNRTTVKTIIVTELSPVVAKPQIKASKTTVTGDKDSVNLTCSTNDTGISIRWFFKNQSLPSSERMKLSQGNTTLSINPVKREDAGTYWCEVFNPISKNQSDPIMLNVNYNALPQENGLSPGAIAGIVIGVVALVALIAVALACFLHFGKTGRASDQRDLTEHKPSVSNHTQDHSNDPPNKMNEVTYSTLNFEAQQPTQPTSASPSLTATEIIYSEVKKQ
Description: The human CEACAM5 and CEACAM1 genes were cloned into pcDNA3.1, and the vector was subsequently stably transfected into CHO cells. […] Binding of the antibodies was detected using fluorochrome-conjugated anti-human IgG and analyzed using flow cytometry.

[2] = molecular target: human CD40 expressed on cells (CD40 reporter cells, HEK Blue CD40L cells, B cells, Raji cells) (human, UniProt P25942 21-277); assay: cell-based or functional assay
Sequence of human CD40 expressed on cells (CD40 reporter cells, HEK Blue CD40L cells, B cells, Raji cells) (P25942 21-277): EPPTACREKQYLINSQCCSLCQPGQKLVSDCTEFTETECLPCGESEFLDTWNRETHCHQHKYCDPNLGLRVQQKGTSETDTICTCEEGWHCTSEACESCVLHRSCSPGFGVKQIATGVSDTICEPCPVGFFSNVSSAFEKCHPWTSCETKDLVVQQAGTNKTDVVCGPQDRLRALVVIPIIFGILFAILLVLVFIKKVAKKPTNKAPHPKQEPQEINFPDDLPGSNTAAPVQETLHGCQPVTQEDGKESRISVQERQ

[3] = molecular target: T2, human CEACAM6 (hCEACAM-6, #3934-CM-050, R&D Systems) (human, UniProt P40199 35-320); assay: ELISA; antigen coated at 0.5 µg/mL, bsAb titrated, anti-human kappa-HRP, luminescence [5/7) Multi44]
T2 construct: Bought protein
T2 sequence (looked up): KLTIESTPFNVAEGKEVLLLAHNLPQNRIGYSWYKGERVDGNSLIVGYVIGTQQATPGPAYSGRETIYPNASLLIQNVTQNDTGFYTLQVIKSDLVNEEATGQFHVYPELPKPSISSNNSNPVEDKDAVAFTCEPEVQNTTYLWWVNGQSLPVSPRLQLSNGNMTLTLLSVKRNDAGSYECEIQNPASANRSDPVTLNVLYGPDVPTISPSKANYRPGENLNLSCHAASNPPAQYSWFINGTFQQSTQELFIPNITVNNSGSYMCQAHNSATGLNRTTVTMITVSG
Method: (§1) 96-well plates were coated with 0.5 μg/mL antigen, hCEACAM-1 (2244-CM-050, R&D Systems), hCEACAM-5 (4128-CM-050, R&D Systems), hCEACAM-6 (3934-CM-050, R&D Systems) or CEACAM-8 (9639-CM-050, R&D Systems) in PBS over night at 4° C. After washing in PBS/0.05% Tween 20 (PBST), the plates were blocked with PBST, 2% BSA for at least 30 minutes at room temperature before a second round of washing. RUBY bsAbs, diluted in PBST, 0.5% BSA, were then added and allowed to bind for at least 1 hour at room temperature. […] Finally, a final round of washing was performed and bound complexes detected using SuperSignal Pico Luminescent as substrate and luminescence signals were measured using Fluostar Optima.

[4] = molecular target: T3, human CEACAM1 (hCEACAM-1, #2244-CM-050, R&D Systems) (human, UniProt P13688 35-428); assay: as above
T3 construct: Bought protein
T3 sequence (looked up): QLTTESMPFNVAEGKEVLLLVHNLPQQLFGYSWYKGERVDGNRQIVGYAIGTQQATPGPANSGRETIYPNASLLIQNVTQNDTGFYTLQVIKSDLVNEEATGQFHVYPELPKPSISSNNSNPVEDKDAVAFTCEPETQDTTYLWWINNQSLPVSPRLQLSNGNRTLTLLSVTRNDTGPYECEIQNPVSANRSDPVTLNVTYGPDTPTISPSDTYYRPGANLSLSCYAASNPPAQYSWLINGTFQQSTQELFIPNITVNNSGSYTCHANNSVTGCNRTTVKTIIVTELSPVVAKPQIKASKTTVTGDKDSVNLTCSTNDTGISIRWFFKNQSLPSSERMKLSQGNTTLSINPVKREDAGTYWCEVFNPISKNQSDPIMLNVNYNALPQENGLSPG
Method: as §1

B1: Multi44 (bispecific antibody)
heavy 1: not shown
light: DIQMTQSPSSLSASVGDRVTITCRASQSISSYLNWYQEKPGKAPKLLIYAASSLQSGVPSRFSGSGSGTDFTLTISSLQPEDFATYYCQQWGYLLTFGQGTKLEIKRTVAAPSVFIFPPSDEQLKSGTASVVCYLNNFYPREAKVQWKVDNALQSGNSQESVTEQDSKDSTYSLWSTLTLSKADYEKHKVYACEVTHQGLSSPVTKSFNRGEC
heavy 2: EVQLLESGGGLVQPGGSLRLSCAASGFTFSTYGMHWVREAPGKGLEWLSYISGGSSYIFYADSVKGRFTISRDNSKNTLYLQMNSLRAEDTAVYYCARILRGGSGMDLWGQGTLVTVSSASTKGPSVFPLAPSSKSTSGGTAALGCLVKDYFPEPVTVSWNSGALTSGVHTFPAVLQSSGLYSLTSVVEVPSSSLGTQTYICNVNHKPSNTKVDKKVEPKSC
notes: Optimized RUBY format; copies: 2 + 2 + 2
binding result [1]: no binding (tested: 400 nM) | EC50 (nM), HEK Blue CD40L SEAP reporter, CHO-CEACAM5 crosslinking, 0 Raji sink cells/well [2]: 0.02 nM | EC50 (nM), HEK Blue CD40L SEAP reporter, CHO-CEACAM5 crosslinking, 10 000 Raji sink cells/well [2]: 0.05 nM | EC50 (nM), HEK Blue CD40L SEAP reporter, CHO-CEACAM5 crosslinking, 30 000 Raji sink cells/well [2]: 0.08 nM | EC50 (nM), HEK Blue CD40L SEAP reporter, CHO-CEACAM5 crosslinking, 90 000 Raji sink cells/well [2]: 0.16 nM | binding result [3]: no binding (tested: 100 nM) | binding result [4]: no binding (tested: 100 nM)
